Measurements published in the supplement of paper PMC10724198.
± gives the standard deviation of the averaged measurements.
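Further: PSI is a weighted mean of sequencing reads over stability bins, variants kept only with over 10 reads, mCherry proximal and sfGFP distal, peptide attached via GGGS linker.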

Each sequence was assayed on Saccharomyces cerevisiae (assay: protein stability index of tFT-peptide fusion (C-terminal peptide) (PSI (0-1 scale)); higher = more stable (slower turnover)). Details: genetic background: wild type; temperature: 30 C.
PQLNRKAATPQN gave a protein stability index of 0.641 ± 0.069.
With PQPLESTVDHRL the protein stability index was 0.7192 ± 0.0062.
PRAANRWASKAL was tested, and the protein stability index was 0.6941 ± 0.0069.
PRETRPDEAQRG gave a protein stability index of 0.726 ± 0.069.
With PREYGSYHNYHS the protein stability index was 0.592 ± 0.047.
Work on PRFPPLPAHRVR yielded a protein stability index of 0.633 ± 0.047.
Work on PRFPQPSTLLPP yielded a protein stability index of 0.698 ± 0.021.
PRHPRLPAPPAP gave a protein stability index of 0.666 ± 0.034.
PRHSPPPPLPAP gave a protein stability index of 0.699 ± 0.014.
Work on PRHVISQCFSRT yielded a protein stability index of 0.6641 ± 0.005.
Work on PRIPPPIPPDTP yielded a protein stability index of 0.695 ± 0.045.
With PRKHSSRAINPI the protein stability index was 0.721 ± 0.06.
With PRLCFPPPPAPA the protein stability index was 0.688 ± 0.083.
PRPPALPFPLLA was tested, and the protein stability index was 0.5329 ± 0.0036.
PRPPHPPPASPP was tested, and the protein stability index was 0.58 ± 0.031.
With PRPPPPRPRSSP the protein stability index was 0.667 ± 0.066.
With PRPPSPPPPSPA the protein stability index was 0.808 ± 0.072.
PRRLCLLPLLSP gave a protein stability index of 0.662 ± 0.022.
In the case of PRRPCDPLRAPH, the protein stability index is reported as 0.737 ± 0.15.
With PRRPPPPRARFP the protein stability index was 0.723 ± 0.026.
In the case of PRSAMTRHSSCR, the protein stability index is reported as 0.65 ± 0.017.
PRSAPPPPNSLF gave a protein stability index of 0.656 ± 0.035.
PRSPLSIFPSSL showed a protein stability index of 0.692 ± 0.13.
PRSPSPPRSPSP gave a protein stability index of 0.66 ± 0.12.
With PRSSPEPTCQDP the protein stability index was 0.647 ± 0.099.
Work on PRSTATSPPAPP yielded a protein stability index of 0.6678 ± 0.0019.
PRTDIGGAGLGE gave a protein stability index of 0.6961 ± 0.0019.
PRTLRHSGRLAE gave a protein stability index of 0.705 ± 0.016.
Work on PRTSQVNRFFRV yielded a protein stability index of 0.721 ± 0.13.
PRYCVQQNPQDR was tested, and the protein stability index was 0.722 ± 0.044.
For PSALPPFQPGPL, the protein stability index was 0.747 ± 0.047.
For PSAPFPFPALGA, the protein stability index was 0.61 ± 0.028.
Work on PSAPLVPNLLAA yielded a protein stability index of 0.662 ± 0.016.
With PSAPPSLPFLPY the protein stability index was 0.692 ± 0.032.
PSDYDCHRKTFS showed a protein stability index of 0.738 ± 0.01.
With PSFLPLPLPSSF the protein stability index was 0.718 ± 0.028.
In the case of PSFPHLPDFFIP, the protein stability index is reported as 0.6779 ± 0.0019.
In the case of PSFPSSPSPVTL, the protein stability index is reported as 0.69 ± 0.035.
Sequence PSGDYVVLTTVS has a protein stability index of 0.6901 ± 0.0038.
Sequence PSGFLFPLSPPA has a protein stability index of 0.698 ± 0.01.
With PSGLLPILRLFL the protein stability index was 0.681 ± 0.047.
PSGNGAPRVHRK was tested, and the protein stability index was 0.65 ± 0.011.
With PSHLPRARRPPR the protein stability index was 0.686 ± 0.011.
In the case of PSHLWWDCIRKG, the protein stability index is reported as 0.625 ± 0.049.
With PSHPAPGPSTRQ the protein stability index was 0.673 ± 0.032.
Sequence PSHPPLLLPLLL has a protein stability index of 0.714 ± 0.022.
In the case of PSHSRSRPPPYL, the protein stability index is reported as 0.742 ± 0.1.
Sequence PSKMPNSTLRAE has a protein stability index of 0.682 ± 0.065.
Work on PSKTQKQYKTVA yielded a protein stability index of 0.644 ± 0.094.
PSLHRPPLLPCP gave a protein stability index of 0.674 ± 0.013.
PSLLLPPLPLYT gave a protein stability index of 0.662 ± 0.031.
In the case of PSLLPPATLLPI, the protein stability index is reported as 0.718 ± 0.072.
PSLLSHAPSPRR gave a protein stability index of 0.682 ± 0.016.
Work on PSLPLPSPPPFP yielded a protein stability index of 0.643 ± 0.1.
In the case of PSLPPHPPSPLP, the protein stability index is reported as 0.742 ± 0.053.
Work on PSLPPPSPSTAP yielded a protein stability index of 0.713 ± 0.03.
In the case of PSLPRLPLCPLP, the protein stability index is reported as 0.704 ± 0.018.
PSLSPLPPRTTS showed a protein stability index of 0.732 ± 0.048.
With PSLSYSRPPHPS the protein stability index was 0.681 ± 0.027.
PSPGPPHPPPLF was tested, and the protein stability index was 0.713 ± 0.063.
PSPGPPLPPPLF showed a protein stability index of 0.7625 ± 0.0075.
PSPLPGYFFTLS showed a protein stability index of 0.627 ± 0.12.
PSPLPPPAPHPL was tested, and the protein stability index was 0.752 ± 0.26.
For PSPLPSPPPPPP, the protein stability index was 0.625 ± 0.0074.
PSPLPTALLTNR gave a protein stability index of 0.644 ± 0.14.
PSPLSPEHPLPI showed a protein stability index of 0.72334 ± 0.00035.
With PSPPLLPPPLYT the protein stability index was 0.658 ± 0.014.
In the case of PSPPPFPPIPFC, the protein stability index is reported as 0.708 ± 0.048.
Sequence PSPPPPPPTTVL has a protein stability index of 0.718 ± 0.021.
PSPPPSSPPPRS gave a protein stability index of 0.686 ± 0.051.
In the case of PSPPRPPLPART, the protein stability index is reported as 0.763 ± 0.028.
Sequence PSPPVPPLPPVF has a protein stability index of 0.55 ± 0.032.
PSPPYPPPSLPH showed a protein stability index of 0.69 ± 0.044.
PSPPYSRPPLPP gave a protein stability index of 0.698 ± 0.049.
With PSPRISLSVFPC the protein stability index was 0.646 ± 0.062.
PSPRSPVPLTPS was tested, and the protein stability index was 0.708 ± 0.015.
Work on PSPRSSPPCSAS yielded a protein stability index of 0.693 ± 0.039.
With PSPSPNALALLR the protein stability index was 0.71439 ± 0.00045.
With PSPSPPPLRSPL the protein stability index was 0.623 ± 0.016.
In the case of PSQPLPPSRHRP, the protein stability index is reported as 0.616 ± 0.037.
PSRPPALPPPAT gave a protein stability index of 0.721 ± 0.014.
PSRRPAVLPPLI gave a protein stability index of 0.6719 ± 0.0015.
For PSRSCSAPLHPN, the protein stability index was 0.78 ± 0.056.
Sequence PSRTTPARPPLT has a protein stability index of 0.662 ± 0.061.
Sequence PSSEGHMEDTAA has a protein stability index of 0.684 ± 0.018.
Work on PSSPPPPSATPP yielded a protein stability index of 0.701 ± 0.091.
PSSTLRLSPSSL gave a protein stability index of 0.728 ± 0.023.
In the case of PSSVPSTPTPPP, the protein stability index is reported as 0.657 ± 0.076.
In the case of PSTAPHLSPPPP, the protein stability index is reported as 0.731 ± 0.022.
With PSTRPMLRSQQK the protein stability index was 0.66 ± 0.013.
In the case of PSVPPLQPPHSV, the protein stability index is reported as 0.697 ± 0.031.
PSVVPSLSPLFL gave a protein stability index of 0.796 ± 0.062.
For PSVYAASPPLPP, the protein stability index was 0.68 ± 0.03.
For PSYSFQYRLIQD, the protein stability index was 0.712 ± 0.038.
For PTDFTPREAIGI, the protein stability index was 0.68 ± 0.087.
PTGYPGPRMMVW was tested, and the protein stability index was 0.771 ± 0.3.
PTHALLGCTCAN was tested, and the protein stability index was 0.681 ± 0.024.
Sequence PTLRAPLRYGYL has a protein stability index of 0.675 ± 0.022.
Work on PTPLSRPPTNAA yielded a protein stability index of 0.634 ± 0.042.
For PTPPPGLCTPRH, the protein stability index was 0.702 ± 0.04.
In the case of PTPPSARAPPTT, the protein stability index is reported as 0.686 ± 0.032.
With PTQVSGIVPAPR the protein stability index was 0.7732 ± 0.0051.
In the case of PTRIPRAPGPAQ, the protein stability index is reported as 0.694 ± 0.025.
With PTRPPNEPTVHP the protein stability index was 0.659 ± 0.066.
Sequence PTRPSRPPRPPP has a protein stability index of 0.598 ± 0.026.
Sequence PTRRPDGQLHPS has a protein stability index of 0.6707 ± 0.0027.
Sequence PTRTAYHRQIPT has a protein stability index of 0.773 ± 0.043.
In the case of PTRTSHLCLIPP, the protein stability index is reported as 0.67 ± 0.075.
PTSDSPSLALPC showed a protein stability index of 0.71 ± 0.023.
PTSPPPPPASPS showed a protein stability index of 0.836 ± 0.18.
For PTTAPPIPLPSP, the protein stability index was 0.72 ± 0.035.
PTTLCLSDRPQP gave a protein stability index of 0.721 ± 0.0081.
For PTTNHLSNRHNI, the protein stability index was 0.685 ± 0.085.
Sequence PTTRSAPPPCIA has a protein stability index of 0.676 ± 0.03.
For PTTTLYNPSPPN, the protein stability index was 0.742 ± 0.043.
With PVEGSTPPPGTT the protein stability index was 0.614 ± 0.032.
For PVIGLSMEKARG, the protein stability index was 0.739 ± 0.1.
PVLPFPSPPAAS gave a protein stability index of 0.682 ± 0.078.
PVLPPCLLPTPV gave a protein stability index of 0.509 ± 0.093.
PVLPRPNTQSRS was tested, and the protein stability index was 0.694 ± 0.027.
Work on PVLSRLHSEVFL yielded a protein stability index of 0.73 ± 0.081.
Work on PVPSPFMHRAAP yielded a protein stability index of 0.702 ± 0.015.
In the case of PVPSRAQTRSRA, the protein stability index is reported as 0.65 ± 0.073.
PVPVLGPESSVH was tested, and the protein stability index was 0.67 ± 0.023.
With PVQNVGAEVRPA the protein stability index was 0.683 ± 0.0094.
Work on PVSCTLTLPPPH yielded a protein stability index of 0.65 ± 0.0036.
In the case of PVSSPPRPAPSP, the protein stability index is reported as 0.677 ± 0.025.
With PVVDVRFSFRCL the protein stability index was 0.644 ± 0.038.
PVWLLHIRPPIP gave a protein stability index of 0.681 ± 0.058.
Work on PVYAYYVPCAPR yielded a protein stability index of 0.645 ± 0.091.
For PWANRVCFLHMK, the protein stability index was 0.678 ± 0.037.
For PWEVEAKNGRDR, the protein stability index was 0.717 ± 0.032.
In the case of PWGGVLGWGLVG, the protein stability index is reported as 0.608 ± 0.016.
PWGSPLMACRSC showed a protein stability index of 0.694 ± 0.02.
PWTAGQGWATIP gave a protein stability index of 0.688 ± 0.04.
Sequence PWTAHVWSMVLG has a protein stability index of 0.552 ± 0.033.
For PWWGCTLGGGWG, the protein stability index was 0.737 ± 0.063.
Work on PYEPTIALPLLL yielded a protein stability index of 0.683 ± 0.058.
With PYFFSPIFTRTP the protein stability index was 0.712 ± 0.027.
PYFHRRMSLESF was tested, and the protein stability index was 0.703 ± 0.013.
In the case of PYGFNPSANGSS, the protein stability index is reported as 0.696 ± 0.068.
PYHLFLSFSLSR showed a protein stability index of 0.725 ± 0.011.
Sequence PYPPPPALPSSF has a protein stability index of 0.667 ± 0.032.
PYRLPRSLLFFP showed a protein stability index of 0.6688 ± 0.0045.
Sequence PYSHFVFGLCEL has a protein stability index of 0.75 ± 0.096.
PYTPPTSSRDRS showed a protein stability index of 0.661 ± 0.019.
QADAPPGDTNTL gave a protein stability index of 0.727 ± 0.041.
QCASPRLSLGSP gave a protein stability index of 0.703 ± 0.03.
With QCCPPEQLSNCS the protein stability index was 0.681 ± 0.011.
QCGYGKLSGGSQ showed a protein stability index of 0.672 ± 0.034.
With QCNYCVQNLSSR the protein stability index was 0.695 ± 0.019.
With QDSTNTPHTCRS the protein stability index was 0.695 ± 0.06.
Work on QEIRKEILLIKS yielded a protein stability index of 0.6 ± 0.098.
QERRDQGRKGQD showed a protein stability index of 0.673 ± 0.011.
With QESSDSRHATIR the protein stability index was 0.624 ± 0.044.
In the case of QFIGVGKVQRFG, the protein stability index is reported as 0.59 ± 0.014.
Sequence QFLGVGCLRGKR has a protein stability index of 0.692 ± 0.037.
QFNVLPGQVGLV was tested, and the protein stability index was 0.635 ± 0.027.
With QFTLLEFVRSMG the protein stability index was 0.613 ± 0.032.
In the case of QGGGDREVRVSE, the protein stability index is reported as 0.653 ± 0.058.
